The values that follow come from PMC11610669, “A Spectroscopic Study on the Amyloid‐β Interaction with Clicked Peptide‐Porphyrin Conjugates: a Vision Toward the Detection of Aβ Peptides in Aqueous Solution” (Chembiochem, 2024).

Entries after “also recorded” stand apart in the source; their conditions may differ.

For data set [1], the target named is T1, Aβ42 (Homo sapiens, UniProt P05067). Description: Sensing: induced CD in porphyrin Soret region with Aβ42. In kind it is binding. The following applies: Aβ42 20 μM, 1:1, 350–500 nm, 10 mM phosphate buffer pH 7.4. As to the method:
The Grating‐Coupled Interferometry (GCI) is a widely used analytical technique for characterizing intermolecular interactions. It allows quantitative measurements of both the affinity and the kinetics of the binding events. This high sensitivity label‐free method was exploited to measure the interactions of Aβ42 with Cu‐Ph‐Pep , Ph‐Pep , and Zn‐Ph‐Pep (Figure 5S). Control experiments with pristine MCPTPyP and the peptide GPGKLVFF ( Pep ) were carried out for comparison. The calculated association and dissociation kinetic constants (kon and koff, respectively) and the thermodynamic binding constant (KD), are summarized in Table 1. The obtained values indicate that all the conjugates show good affinities with Aβ42. It is also clear from Table 1 that the peptide moiety is fundamental for the molecular recognition of the Aβ42 peptide.[48] […] For the sake of comparison, the CD spectra of the porphyrin‐peptide conjugates at 20 μM were also recorded in the same experimental conditions, both in the far‐UV and Visible regions (Figure 6S).
Spectra were recorded on a J‐810 spectrometer (Jasco, Japan) under a constant flow of N2 at room temperature. […] All aggregation kinetics were monitored up to 120 hours. The CD spectra were recorded for Aβ42 (5 μM and 20 μM) monomer in the absence or in the presence of porphyrin‐peptide conjugates (5 μM and 20 μM for the 1 : 1 molar ratios). […]

A short description of data set [2]: CD control: β-sheet propensity of the conjugates alone. In kind it is physicochemical. The following applies: 10 mM phosphate buffer pH 7.4, room temperature, up to 120 h. Here is the method:
The UV‐Vis spectra of porphyrin‐peptide conjugates (5 μM) were recorded in the presence of an equimolar ration of Aβ42 monomers at 0, 24, 48 and 120 h (Figure 2S). […] Therefore, the interaction of the peptide‐porphyrin conjugates with Aβ was further studied using CD spectroscopy. The Aβ42 aggregation process was monitored either in the absence or in the presence of an equimolar amount of the conjugated peptides. A series of CD control experiments were preventively carried out to assess the propensity of the porphyrin‐peptide conjugates to adopt a β‐sheet conformation. The corresponding CD curves are shown in the supplementary material (Figure 3S). […] We then evaluated the ability of the porphyrin‐peptide conjugates to affect the Aβ42’s aggregation process. This was accomplished by running a series of CD experiments on the binary systems in the same experimental conditions as the control CD measurements. A 5 μM Aβ42 sample was used as a positive control of the aggregation process (Figure 3, panel a). In this case, the curve profiles indicate that at 0 h, Aβ42 is predominantly in the random coil conformation, as evidenced by the negative ellipticity around 200 nm. […] The typical dichroic profile characterized by a negative ellipticity at λ=222 nm and a positive band at λ=200 is indicative of this event (Figure 3, panel a).
Spectra were recorded on a J‐810 spectrometer (Jasco, Japan) under a constant flow of N2 at room temperature. The CD measurements were performed in the wavelength regions (190–260 nm, 195–350 nm and 350–500 nm) using a 1 cm path length quartz cell. All aggregation kinetics were monitored up to 120 hours. The CD spectra were recorded for Aβ42 (5 μM and 20 μM) monomer in the absence or in the presence of porphyrin‐peptide conjugates (5 μM and 20 μM for the 1 : 1 molar ratios). Monomerized samples of Aβ42 (5 μM and 20 μM) were solubilized in 50 μL of NaOH 20 mM (2,5 %) and after were diluted with 1950 μL of 10 mM phosphate buffer at pH 7.4 pure or containing the solubilized conjugates.

Data set [3] concerns the target T1, Aβ42. The experiment in a line: bis-Ans fluorescence anti-fibrillogenic assay. Type of data set: biochemical. The following applies: Aβ42 20 μM, 1:1, 60 μM Bis-Ans solution, phosphate buffer pH 7.4, 37 °C, 65 h, ex/em 385/510 nm, triplicate. The source says: We also carried out fluorescence assays to evaluate the anti‐fibrillogenic ability of the porphyrin‐peptide conjugates. We used the bis‐Ans (4,4’‐Dianilino‐1,1’‐binaphtyl‐5,5’disulphonic acid) as a chromophore instead of the typical Th−T (Thioflavin‐T), to avoid any potential interference that might occur between the porphyrin and Th−T, in both the excitation and emission wavelength regions. The bis‐Ans probe is sensitive to Aβ fibril formation, and it specifically binds to solvent‐exposed hydrophobic surfaces leading to an increase in its fluorescence emission maximum at 510 nm, in our case.[47] The bis‐Ans fluorescence kinetics were recorded with Aβ42 (20 μM) alone or in the presence of the porphyrin‐peptide conjugates at a 1 : 1 molar ratio. The kinetic profiles of the porphyrin‐peptide conjugates in the absence of Aβ42 were also acquired for comparison (Figure 4S). […] The obtained fluorescence intensities were compared with the values obtained for Aβ42 alone.
Bis‐Ans fluorescence kinetics were measured on a Flash Thermo Varioskan spectrofluorometer with excitation and emission at 385 and 510 nm, respectively. Aβ42, alone or in the presence of the porphyrin‐peptide conjugates in a 1 : 1 molar ratio, was dissolved in 10 mM aq NaOH (30 μL). […] Readings were taken every 10 min, after weak shaking for 10 s. The fluorescence intensity was monitored for 65 h. […]

T1 sequence (P05067 672-713 limits assumed): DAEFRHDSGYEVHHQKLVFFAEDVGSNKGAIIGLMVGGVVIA

For the molecule `COC(=O)[C@H](Cc1cn(CCCC[C@H](NC(=O)CNC(C)=O)C(=O)N2CCC[C@H]2C(=O)NCC(=O)N[C@@H](CCCCN)C(=O)N[C@@H](CC(C)C)C(=O)N[C@H](C(=O)N[C@@H](Cc2ccccc2)C(=O)N[C@@H](Cc2ccccc2)C(N)=O)C(C)C)nn1)NC(=O)c1ccc(-c2c3nc(c(-c4cc[n+](C)cc4)c4ccc([nH]4)c(-c4cc[n+](C)cc4)c4nc(c(-c5cc[n+](C)cc5)c5ccc2[nH]5)C=C4)C=C3)cc1` [Zn‐Ph‐Pep], the “induced CD signal in Soret region with Aβ42” value on Aβ42 [1] was “induced dichroic signal; also recorded: generates a distinct CD signal”. In data set [2], the “propensity to adopt β-sheet conformation (conjugate alone)” value was “being faster in this process”. Further, the “effect on Aβ42 fibril formation (bis-Ans fluorescence)” value in the data set with Aβ42 [3] was “might support or even accelerate Aβ42’s fibril formation”.
